Laboratory results from US9540424B2, “Serum albumin binding molecules” (BRISTOL-MYERS SQUIBB COMPANY, priority 2010, dated 2017).

Test system: 3T3-L1 adipocytes
Test: pERK assay in 3T3-L1 adipocytes
Format: cell-based, mouse
Method: 3T3-L1 cells (ATCC # CL-173) are mouse fibroblasts that can be differentiated into mouse adipocytes. Since β-klotho is expressed only in differentiated 3T3-L1 cells, it was necessary to first differentiate them before performing a β-klotho pERK 1/2 assay as described in Example B3.
The cells were grown in DMEM media (Invitrogen #12430-054) supplemented with 10% characterized fetal bovine serum (Hyclone # SH30071.03) and 1X Antibiotic-Antimycotic (Gibco #15240-096). Cells were cultured in a 37° C. incubator with 5% CO2. The sub-culturing procedure was followed as described in ATCC's product information sheet with the exception that TrypLE Express (Gibco #12605) was used instead of the Trypsin-EDTA solution.
Approximately 68 hours before differentiation, 5500 cells per well (in 150 μl media) were seeded into 96 well plates (Falcon #353072); cell numbers could be adjusted according to the time of the seeding and their doubling time, but cells were 100% confluent at the time the differentiation procedure was started. […]
At the ninth to tenth day of differentiation, the growth media was aspirated off the cells and cells were starved with 200 μl of DMEM (Invitrogen #12320-032) with 2% fetal bovine serum overnight. […] The plate was finally read on a PerkinElmer Envision 2103 Multilabel Reader, using standard Alpha Screening settings.

B1: His-tagged FGF21: non-fused His-tagged FGF21 (“FGFv1”; SEQ ID NO: 125) used as a comparator (protein)
chain: MHHHHHHPIPDSSPLLQFGGQVRQRYLYTDDAQQTEAHLEIREDGTVGGAADQSPESLLQLKALKPGVIQILGVKTSRFLCQRPDGALYGSLHFDPEACSFRELLLEDGYNVYQSEAHGLPLHLPGNKSPHRDPAPRGPARFLPLPGLPPALPEPPGILAPQPPDVGSSDPLSMVGPSQGRSPSYAS
modifications: His6 tag
- EC50: 4 ± 2 nM
- Fold Activation: 2.1 ± 0.2
